Laboratory results reported in patent US20060058230A1 (published 2006).
Non-standard residues stand in square brackets, D forms with d. No end group written: not given here. 2Nal = N[C@@H](Cc1ccc2ccccc2c1)C(=O)O; 2Thi = N[C@@H](Cc1cccs1)C(=O)O; β3hL = CC(C)C[C@H](N)CC(=O)O; Nle = CCCC[C@H](N)C(=O)O; βAla = NCCC(=O)O

T1: recombinant hPTH1-receptor (human, UniProt Q03431 27-593)
T1 sequence (looked up): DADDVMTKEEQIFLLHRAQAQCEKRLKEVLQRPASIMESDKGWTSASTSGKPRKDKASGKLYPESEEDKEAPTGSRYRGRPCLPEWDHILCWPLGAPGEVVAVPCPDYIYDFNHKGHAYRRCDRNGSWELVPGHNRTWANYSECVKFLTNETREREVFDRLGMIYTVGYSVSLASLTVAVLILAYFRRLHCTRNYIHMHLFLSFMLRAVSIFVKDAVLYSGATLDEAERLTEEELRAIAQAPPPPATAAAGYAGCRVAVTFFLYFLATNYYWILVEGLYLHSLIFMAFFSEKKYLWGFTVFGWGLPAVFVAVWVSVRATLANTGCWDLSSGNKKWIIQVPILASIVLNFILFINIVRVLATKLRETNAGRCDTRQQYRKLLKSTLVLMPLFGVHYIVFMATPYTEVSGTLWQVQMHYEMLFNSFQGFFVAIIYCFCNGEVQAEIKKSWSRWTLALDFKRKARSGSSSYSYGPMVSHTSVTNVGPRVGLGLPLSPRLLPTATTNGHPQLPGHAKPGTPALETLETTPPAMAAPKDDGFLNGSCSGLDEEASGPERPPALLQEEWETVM

T2: PTH receptor on SaOS-2/B10 cells (UniProt Q03431 27-593)
T2 construct: whole, on cells; also called PTH/PTHrP receptor
T2 sequence (looked up): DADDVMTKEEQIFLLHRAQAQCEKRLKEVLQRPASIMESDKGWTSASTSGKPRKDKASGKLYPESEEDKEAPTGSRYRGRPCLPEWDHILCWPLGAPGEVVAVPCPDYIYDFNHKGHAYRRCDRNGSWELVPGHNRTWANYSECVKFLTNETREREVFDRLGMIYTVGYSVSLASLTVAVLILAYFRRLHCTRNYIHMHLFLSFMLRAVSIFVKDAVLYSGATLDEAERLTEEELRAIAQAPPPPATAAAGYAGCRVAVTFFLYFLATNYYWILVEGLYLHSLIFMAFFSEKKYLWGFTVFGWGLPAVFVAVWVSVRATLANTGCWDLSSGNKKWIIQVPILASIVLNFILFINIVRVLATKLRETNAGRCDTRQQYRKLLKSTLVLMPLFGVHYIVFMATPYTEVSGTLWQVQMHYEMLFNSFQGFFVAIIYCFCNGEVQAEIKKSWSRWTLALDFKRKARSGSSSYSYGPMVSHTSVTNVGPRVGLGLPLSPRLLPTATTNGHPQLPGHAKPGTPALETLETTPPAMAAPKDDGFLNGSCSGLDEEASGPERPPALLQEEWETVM

B1: [Glu^22,25,29, Leu^23,28,31, Lys^26,30, Thi^32]hPTHrP(1-34)NH2 (peptide)
peptide: AVSEHQLLHDKGKSIQDLRRRELLEKLLEKL[2Thi]TA-NH2
modifications: N-terminus assumed
SMILES: CC[C@H](C)[C@H](NC(=O)[C@H](CO)NC(=O)[C@H](CCCCN)NC(=O)CNC(=O)[C@H](CCCCN)NC(=O)[C@H](CC(=O)O)NC(=O)[C@H](Cc1c[nH]cn1)NC(=O)[C@H](CC(C)C)NC(=O)[C@H](CC(C)C)NC(=O)[C@H](CCC(N)=O)NC(=O)[C@H](Cc1c[nH]cn1)NC(=O)[C@H](CCC(=O)O)NC(=O)[C@H](CO)NC(=O)[C@@H](NC(=O)[C@H](C)N)C(C)C)C(=O)N[C@@H](CCC(N)=O)C(=O)N[C@@H](CC(=O)O)C(=O)N[C@@H](CC(C)C)C(=O)N[C@@H](CCCNC(=N)N)C(=O)N[C@@H](CCCNC(=N)N)C(=O)N[C@@H](CCCNC(=N)N)C(=O)N[C@@H](CCC(=O)O)C(=O)N[C@@H](CC(C)C)C(=O)N[C@@H](CC(C)C)C(=O)N[C@@H](CCC(=O)O)C(=O)N[C@@H](CCCCN)C(=O)N[C@@H](CC(C)C)C(=O)N[C@@H](CC(C)C)C(=O)N[C@@H](CCC(=O)O)C(=O)N[C@@H](CCCCN)C(=O)N[C@@H](CC(C)C)C(=O)N[C@@H](Cc1cccs1)C(=O)N[C@H](C(=O)N[C@@H](C)C(N)=O)[C@@H](C)O
notes: Synthetic analog of human PTHrP(1-34), carboxamide at the C-terminus
B2: [Nle^8, β-hLeu^18, β-Ala^19, Nal^23, Tyr^34]bPTH(1-34)NH2 (peptide)
peptide: AVSEIQF[Nle]HNLGKHLSS[β3hL][βAla]RVE[2Nal]LRKKLQDVHNY-NH2
modifications: N-terminus assumed
SMILES: CCCC[C@H](NC(=O)[C@H](Cc1ccccc1)NC(=O)[C@H](CCC(N)=O)NC(=O)[C@@H](NC(=O)[C@H](CCC(=O)O)NC(=O)[C@H](CO)NC(=O)[C@@H](NC(=O)[C@H](C)N)C(C)C)[C@@H](C)CC)C(=O)N[C@@H](Cc1c[nH]cn1)C(=O)N[C@@H](CC(N)=O)C(=O)N[C@@H](CC(C)C)C(=O)NCC(=O)N[C@@H](CCCCN)C(=O)N[C@@H](Cc1c[nH]cn1)C(=O)N[C@@H](CC(C)C)C(=O)N[C@@H](CO)C(=O)N[C@@H](CO)C(=O)N[C@H](CC(=O)NCCC(=O)N[C@@H](CCCNC(=N)N)C(=O)N[C@H](C(=O)N[C@@H](CCC(=O)O)C(=O)N[C@@H](Cc1ccc2ccccc2c1)C(=O)N[C@@H](CC(C)C)C(=O)N[C@@H](CCCNC(=N)N)C(=O)N[C@@H](CCCCN)C(=O)N[C@@H](CCCCN)C(=O)N[C@@H](CC(C)C)C(=O)N[C@@H](CCC(N)=O)C(=O)N[C@@H](CC(=O)O)C(=O)N[C@H](C(=O)N[C@@H](Cc1c[nH]cn1)C(=O)N[C@@H](CC(N)=O)C(=O)N[C@@H](Cc1ccc(O)cc1)C(N)=O)C(C)C)C(C)C)CC(C)C
notes: Synthetic analog of bovine PTH(1-34), carboxamide at the C-terminus
B3: [Glu^22,25,29, Leu^23,28,30,31, Lys^26]hPTHrP(1-34)NH2 (peptide)
peptide: AVSEHQLLHDKGKSIQDLRRRELLEKLLELLHTA-NH2
notes: as for B1
B4: [Nle^8, β-Ala^17,19, β-hLeu^18, Nal^23, Tyr^34]bPTH(1-34)NH2 (peptide)
peptide: AVSEIQF[Nle]HNLGKHLS[βAla][β3hL][βAla]RVE[2Nal]LRKKLQDVHNY-NH2
modifications: N-terminus assumed
SMILES: CCCC[C@H](NC(=O)[C@H](Cc1ccccc1)NC(=O)[C@H](CCC(N)=O)NC(=O)[C@@H](NC(=O)[C@H](CCC(=O)O)NC(=O)[C@H](CO)NC(=O)[C@@H](NC(=O)[C@H](C)N)C(C)C)[C@@H](C)CC)C(=O)N[C@@H](Cc1c[nH]cn1)C(=O)N[C@@H](CC(N)=O)C(=O)N[C@@H](CC(C)C)C(=O)NCC(=O)N[C@@H](CCCCN)C(=O)N[C@@H](Cc1c[nH]cn1)C(=O)N[C@@H](CC(C)C)C(=O)N[C@@H](CO)C(=O)NCCC(=O)N[C@H](CC(=O)NCCC(=O)N[C@@H](CCCNC(=N)N)C(=O)N[C@H](C(=O)N[C@@H](CCC(=O)O)C(=O)N[C@@H](Cc1ccc2ccccc2c1)C(=O)N[C@@H](CC(C)C)C(=O)N[C@@H](CCCNC(=N)N)C(=O)N[C@@H](CCCCN)C(=O)N[C@@H](CCCCN)C(=O)N[C@@H](CC(C)C)C(=O)N[C@@H](CCC(N)=O)C(=O)N[C@@H](CC(=O)O)C(=O)N[C@H](C(=O)N[C@@H](Cc1c[nH]cn1)C(=O)N[C@@H](CC(N)=O)C(=O)N[C@@H](Cc1ccc(O)cc1)C(N)=O)C(C)C)C(C)C)CC(C)C
B5: [Glu^22,25,29, Lys^26,30]hPTHrP(1-34)NH2 (peptide)
peptide: AVSEHQLLHDKGKSIQDLRRREFLEKLIEKIHTA-NH2
notes: as for B1
B6: [Nle^8,18, β-Ala^19, Nal^23, Tyr^34]bPTH(1-34)NH2 (peptide)
peptide: AVSEIQF[Nle]HNLGKHLSS[Nle][βAla]RVE[2Nal]LRKKLQDVHNY-NH2
modifications: N-terminus assumed
SMILES: CCCC[C@H](NC(=O)[C@H](CO)NC(=O)[C@H](CO)NC(=O)[C@H](CC(C)C)NC(=O)[C@H](Cc1c[nH]cn1)NC(=O)[C@H](CCCCN)NC(=O)CNC(=O)[C@H](CC(C)C)NC(=O)[C@H](CC(N)=O)NC(=O)[C@H](Cc1c[nH]cn1)NC(=O)[C@H](CCCC)NC(=O)[C@H](Cc1ccccc1)NC(=O)[C@H](CCC(N)=O)NC(=O)[C@@H](NC(=O)[C@H](CCC(=O)O)NC(=O)[C@H](CO)NC(=O)[C@@H](NC(=O)[C@H](C)N)C(C)C)[C@@H](C)CC)C(=O)NCCC(=O)N[C@@H](CCCNC(=N)N)C(=O)N[C@H](C(=O)N[C@@H](CCC(=O)O)C(=O)N[C@@H](Cc1ccc2ccccc2c1)C(=O)N[C@@H](CC(C)C)C(=O)N[C@@H](CCCNC(=N)N)C(=O)N[C@@H](CCCCN)C(=O)N[C@@H](CCCCN)C(=O)N[C@@H](CC(C)C)C(=O)N[C@@H](CCC(N)=O)C(=O)N[C@@H](CC(=O)O)C(=O)N[C@H](C(=O)N[C@@H](Cc1c[nH]cn1)C(=O)N[C@@H](CC(N)=O)C(=O)N[C@@H](Cc1ccc(O)cc1)C(N)=O)C(C)C)C(C)C
notes: as for B2
B7: [Glu^25,29, Leu^23,27,31, Lys^30]hPTH(1-34)NH2 (peptide)
peptide: SVSEIQLMHNLGKHLNSMERVELLEKLLEKLHNF-NH2
notes: Synthetic analog of human PTH(1-34), carboxamide at the C-terminus
B8: [Leu^23,27,31]hPTH(1-34)NH2 (peptide)
peptide: SVSEIQLMHNLGKHLNSMERVELLRKLLQDLHNF-NH2
notes: as for B7
B9: [Glu^25,29, Lys^30]hPTH(1-34)NH2 (peptide)
peptide: SVSEIQLMHNLGKHLNSMERVEWLEKKLEKVHNF-NH2
notes: as for B7
B10: [Leu^23,28,31]hPTHrP(1-34)NH2 (peptide)
peptide: AVSEHQLLHDKGKSIQDLRRRFLLHHLLAELHTA-NH2
notes: as for B1

Assays:
[1] = target: T1, recombinant hPTH1-receptor; experiment: cell-based or functional assay
[2] = target: T2, PTH receptor on SaOS-2/B10 cells; experiment: competition with mono-125I-[Nle8,18,Tyr34]bPTH(1-34)NH2 on SaOS-2/B10 cells
Description: SaOS-2/B10 cells were maintained for four days after they had reached confluence. The medium was replaced with 5% FBS […] medium and incubated for 2 hrs at room temperature with 10×10⁴ cpm mono-¹²⁵I-[Nle^{8,18},Tyr³⁴(3-¹²⁵I)]bPTH(1-34)NH₂ in the presence or absence of a competing tested polypeptide of the invention. The cells were washed four times with ice-cold PBS and lysed with 0.1M NaOH, and the radioactivity associated with the cells was counted in a scintillation counter. Synthesis of the radiolabelled [Nle^{8,18},Tyr³⁴(3-¹²⁵I)]bPTH(1-34)NH₂ was carried out as described in Goldman M. E., et al., Endocrinology, (1988), 123, 1468-1475.
The binding assay was conducted on the polypeptides of the invention having SEQ ID NO:5, 6, 7, 9, 10, 11, and 12.

[3] = target: T2, PTH receptor on SaOS-2/B10 cells; experiment: cell-based or functional assay
[4] = target: T1, recombinant hPTH1-receptor; experiment: competition with 125I-[Nle8,18,Nal23,Tyr34]bPTH(1-34)NH2 on HEK293/C21 cells with hPTH1-receptor
Description: Human embryonic kidney (HEK293) cells, stably transfected with recombinant hPTH1-receptor (HEK293/C21 cell line, ˜400,000 receptors/cell) (Pines, M., Adams, A. E., Stueckle, S., Bessalle, R., Rashti-Behar, V., Chorev, M., Rosenblatt, M., and Suva, L. J. Endocrinology 1994, 135, 1713-1716), were maintained in D-MEM medium supplemented with 10% fetal bovine serum and […] glutamine at 37° C. in a humidified atmosphere of 95% air/5% CO₂. The medium was changed every 3-4 days, and the cells were subcultured every week. Ligand stimulated adenylyl cyclase activity and radioreceptor competition binding assays were performed on confluent cultures, 1-3 days after a change of medium.
[Nle^{8,18},Nal²³,Tyr³⁴]bPTH(1-34)-NH₂ was radioiodinated and the crude material was purified as previously described (Roubini, E., Duong, L. T., Gibbons, S. W., Leu, C. T., Caulfield, M. P., Chorev, M., and Rosenblatt, M. Biochemistry 1992, 31, 4026-4033). Briefly, 67 μg of peptide in 50 μL phosphate buffer, pH 7.4, in a borosilicate tube, coated with 10 μg Iodogen® (Pierce Chemical), were treated at room temperature with 2 mCi [¹²⁵I]Na for 12 min, followed by dilution with 200 μL of 0.1% TFA in water.
Cells were plated in 24-well tissue culture dishes (Corning Glass Works, Corning, N.Y.) and grown to subconfluency. […] After incubation, cells were washed twice with PBS and lysed with 0.1 M NaOH. Radioactivity in the lysate was measured in a γ-counter (Analytic GammaTrac™ 1193).

EC50 (half maximal stimulation of adenylate cyclase) [1] [nM] | IC50 [2] [nM] | EC50 (half maximal stimulation of adenylate cyclase) [3] [nM] | IC50 [4] [nM] | Molecule
13.8 | – | – | – | [Nle^8, β-Ala^18,19, Nal^23, Tyr^34]bPTH(1-34)NH2 (peptide)
– | 90 | 10 | – | B1
2.73 | – | – | 117 | B2
– | 70 | 5 | – | B3
9.97 | – | – | – | B4
– | 5.5 | 0.42 | – | B5
1.51 | – | – | 59 | B6
– | 216 | 24 | – | B7
– | 41 | 1.12 | – | B8
– | 30 | 25.5 | – | B9
– | 18.3 | 0.74 | – | B10
